According to US20130225503A1, “TEX14 PEPTIDES AS NOVEL ANTITUMOR AGENTS” (Baylor Licnensing Group, priority 2009, published 2013):

T1: full-length mouse TEX14 (mouse, UniProt Q7M6U3 1-1450)
T1 construct: whole, on cells; In the yeast two-hybrid assay it stood as a fusion with a GAL4 domain (pGBKT7 bait or pGADT7 prey vector)
T1 sequence (looked up): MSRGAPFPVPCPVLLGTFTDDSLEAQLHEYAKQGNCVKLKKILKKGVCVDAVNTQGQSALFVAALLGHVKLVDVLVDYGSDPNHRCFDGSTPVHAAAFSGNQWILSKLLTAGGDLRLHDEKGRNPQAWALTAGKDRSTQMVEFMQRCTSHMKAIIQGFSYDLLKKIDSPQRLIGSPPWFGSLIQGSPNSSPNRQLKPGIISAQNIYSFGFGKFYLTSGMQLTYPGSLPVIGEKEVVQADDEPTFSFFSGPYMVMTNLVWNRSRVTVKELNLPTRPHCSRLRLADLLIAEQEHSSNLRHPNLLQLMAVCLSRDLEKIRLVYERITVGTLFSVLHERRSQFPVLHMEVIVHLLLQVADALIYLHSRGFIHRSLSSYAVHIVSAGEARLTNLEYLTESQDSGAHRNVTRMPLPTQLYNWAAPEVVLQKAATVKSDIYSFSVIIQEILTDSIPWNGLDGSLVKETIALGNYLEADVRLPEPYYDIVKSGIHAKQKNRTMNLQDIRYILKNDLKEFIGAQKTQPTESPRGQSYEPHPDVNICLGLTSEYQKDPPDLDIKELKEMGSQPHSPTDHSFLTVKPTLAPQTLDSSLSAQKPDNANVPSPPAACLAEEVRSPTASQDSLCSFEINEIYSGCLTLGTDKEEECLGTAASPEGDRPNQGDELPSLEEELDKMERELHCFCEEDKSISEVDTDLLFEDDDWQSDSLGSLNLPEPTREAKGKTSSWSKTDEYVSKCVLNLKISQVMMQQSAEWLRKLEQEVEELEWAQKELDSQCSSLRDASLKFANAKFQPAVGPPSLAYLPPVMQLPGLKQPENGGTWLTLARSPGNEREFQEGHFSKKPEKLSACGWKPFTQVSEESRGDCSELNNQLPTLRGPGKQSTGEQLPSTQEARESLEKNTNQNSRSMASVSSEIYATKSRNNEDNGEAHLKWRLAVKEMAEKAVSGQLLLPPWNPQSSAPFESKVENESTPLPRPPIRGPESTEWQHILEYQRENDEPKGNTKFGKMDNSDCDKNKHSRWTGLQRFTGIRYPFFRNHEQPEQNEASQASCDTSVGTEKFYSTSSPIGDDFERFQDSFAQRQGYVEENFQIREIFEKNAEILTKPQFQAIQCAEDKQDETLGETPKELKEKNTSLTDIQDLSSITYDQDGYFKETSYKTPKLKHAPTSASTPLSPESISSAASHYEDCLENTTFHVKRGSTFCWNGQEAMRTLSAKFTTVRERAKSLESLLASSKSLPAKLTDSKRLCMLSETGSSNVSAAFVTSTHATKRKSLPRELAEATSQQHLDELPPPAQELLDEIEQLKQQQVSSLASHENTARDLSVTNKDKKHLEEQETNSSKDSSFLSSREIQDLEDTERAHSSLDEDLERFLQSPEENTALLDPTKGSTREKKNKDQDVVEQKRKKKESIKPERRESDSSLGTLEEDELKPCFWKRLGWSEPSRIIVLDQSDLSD


Biological target: T1, full-length mouse TEX14
Assay: yeast two-hybrid, full-length proteins, oxygen biosensor and selection plates
Procedure: (A) Immunoprecipitation (IP) of FLAG-TEX14 and/or MYC-CEP55 from HEK293T cells, followed by Western blot analysis with the antibodies as shown. Immunoprecipitation of protein G (lanes G) is the control. (B) Yeast two-hybrid analyses using vectors encoding full-length mouse TEX14, MKLP1, CEP55, and positive and negative controls. The relative ratios of TEX14-TEX14, TEX14-MKLP1, and TEX14-CEP55 interactions were determined by using an oxygen-biosensor system. (C) Yeast two-hybrid interactions of mouse and human full-length TEX14 and CEP55. (a) Yeast were stably transformed with vectors and plated for yeast two-hybrid analysis as depicted. SV40 T antigen with p53 and SV40 T antigen with lamin C were used as positive and negative controls, respectively. (b) Interactions between the two-hybrid proteins are evident by colony growth and blue color on selection plates.
Protein-protein interactions were evaluated by using the Matchmaker Two-Hybrid System 3 (Clontech) as described previously (10). Mouse full-length TEX14 and MLKP1 were previously subcloned into the Matchmaker GAL4 two-hybrid pGBKT7 and pGADT7 vectors (10). The constructs of full-length mouse and human CEP55, human TEX14, truncated mouse CEP55-C1, and truncated mouse TEX14-T1, T2, T1[…]T2, T3, T4, and T4-C were made by using the Matchmaker GAL4 two-hybrid pGBKT7 bait vector and pGADT7 prey vectors. Some Y2H interactions were examined with an oxygen biosensor assay (Clontech PT3584-1) that measured the fluorescence emitted by an oxygen-sensing platform that detects GAL4.
Since both CEP55 and TEX14 interact with MKLP1 (10, 22), it was determined whether CEP55 and TEX14 are components of the intercellular bridge as direct or indirect interactors. The inventors first overexpressed full-length FLAG-TEX14 and MYC-CEP55 constructs in HEK293T cells (FIG. 2A). […] Likewise, when the inventors immunoprecipitate with anti-MYC antibody, they immunoprecipitate both MYC-CEP55 and FLAG-TEX14.

| Binder | binding result |
| --- | --- |
| full-length mouse CEP55 (other, UniProt Q8BT07 1-462, looked up, whole, on cells; Yeast two-hybrid fusion with a GAL4 domain (pGBKT7 or pGADT7)) MSSRSPKDLIKSKWGSRPSSSKSDTALEKFKGEIAAFKTSLDEITSGKGKMAEKGRSRLLEKIQVLEAEREKNVYYLLEKDKEIQRLKDHLRSRYSSSSLFEQLEEKTKECEKKQQLLESLSKETDVLKNQLSATTKRLSELESKASTLHLSQSMPANCFNSSMNSIHEKEMQLKDALEKNQQWLVYDQQREAYVKGLLAKIFELEKRTETAAASLTQQMKKIESEGYLQVEKQKYDHLLENAKKDLEVERQAVTQLRLELDEFRRKYEEARKEVEDLNQLLSSQRKADIQHLEEDKQKTERIQKLREESSIFKGKLEEERKRSEELLSQVRILYDSLLKHQEEQARVALLEQQMQACTLDFENEKLDRQNMQHQLYVILKELRKAKSQITQLESLKQLHGFTITEQPFPLQREPESRVKATSPKSPSAALNDSLVECPKCSVQYPATEHRDLLVHVEYCMK | binds |
| full-length mouse MKLP1 (other, UniProt E9Q5G3 1-953, looked up, whole, on cells; Yeast two-hybrid fusion with a GAL4 domain; also called MLKP1) MKSAKAKTVRKPVIKKGSQTNLKDPVGVYCRVRPLSFPDQECCVEVINSTTLQLHTPEGYRLNRNGDYKETQYSFKRVFGTHTTQKELFDVVANPLVDDLIHGKNGLLFTYGVTGSGKTYTMTGSPGSGGLLPRCLNMIFNSIGSFQAKRYVFKSNDRNSMEIQCEVDALLERQKREALPIPKTPSSKRQADPEFADMINVQEFCKAEEVDEDSVYGVFVSYIEIYNNYIYDLLEEVQFDPIKPKLPQSKTLREDKNHNMYVAGCTEVEVKSTEEAFEVFWRGQKKRRIANTHLNRESSRSHSVFSIKLVQAPLDADGDNVLQEKEQITISQLSLVDLAGSERTNRTKAEGNRLREAGNINQSLMTLRTCMEVLRENQTYGTNKMVPYRDSKLTHLFKNYFDGEGKVRMIVCVNPKAEDYEESLQVMRFAEVTQEVEVARPVDKVICGLTPGRRYRNLPRGGPVGDEPLVPEVILQSFPPLPPCKLLDINDEETLPKLADTLEKRHHLRQLMTEDLNKKCLAFKALLKEFDNSLSNKENYVQEKLNEREKVISGQKLEIERLEKKNKTLEYKIEILEKTTTIYEEDKRNLQQELESQNQKLQRQFSDKRRLEARLQGMVTETSMKWQKECERRVAATQLEMQNKLWVKDEKLKQLKAIVTEPKPEKPERPSRERDREKIIPRSVSPSPLPLSSNNIAQISNGQQLMSQPQLHRRSNSCSSISVASCISEWEQKLSPFSTPVNVTSLARHRQQEPGQSKTCIVSDRRRGMCWTEGREMVPTFSSEIGVEEDHCRRNTPIPVRHRRSRSAGSRWVDHKPASNVQTETVMQPHVPHAITVSVANEKALAKCEKYMLTHQELASDGEIQTKVIKGDVYKTRGGGQSVQFTDIETLKQELPTGSRKRRSSTLAPAQPDGTESEWTDVETRCSVAVEMRAGSQLGPGYQHHAQPKRKKP | binds |
